Where a chain is given by its changes, count along the chain named. In names and notes the source's numbering stands.

In one assay the target is T1, hTIGIT mutant L73A (human, UniProt Q495A1).
T1 sequence (TIGIT, looked up): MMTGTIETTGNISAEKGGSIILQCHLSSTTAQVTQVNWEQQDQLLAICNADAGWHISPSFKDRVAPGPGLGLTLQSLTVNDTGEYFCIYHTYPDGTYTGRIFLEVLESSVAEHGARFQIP
The experiment in a line: SPR (BIACORE) KD normalized to WT, N=2.

In another assay the target is T2, hTIGIT mutant Q53A (human, UniProt Q495A1).
T2 sequence (TIGIT, looked up): T1 sequence (TIGIT, looked up) with Q32A, A52L
As to the kind of experiment: SPR (BIACORE) KD normalized to WT, N=2.

Another assay concerns the target T3, hTIGIT mutant Y113A (human, UniProt Q495A1).
T3 sequence (TIGIT, looked up): T1 sequence (TIGIT, looked up) with A52L, Y92A
The experiment in a line: SPR (BIACORE) KD normalized to WT, N=2.

Assay [1] has as its target T4, human TIGIT protein (human, UniProt Q495A1 22-141, limits assumed).
T4 construct: Recombinant protein (Genentech) used in ELISA screening and as SPR analyte; also called TIGIT antigen
T4 sequence: T1 sequence (TIGIT, looked up) with A52L
As to the kind of experiment: SPR (BIACORE) KD normalized to WT, N=2. (In general: Surface plasmon resonance follows binding to a sensor surface in real time, without labels.)

In the next assay the target is T5, hTIGIT mutant L65A (human, UniProt Q495A1).
T5 sequence (TIGIT, looked up): T1 sequence (TIGIT, looked up) with L44A, A52L
As to the kind of experiment: SPR (BIACORE), N=2.

Another assay concerns the target T6, hTIGIT mutant E60A (human, UniProt Q495A1).
T6 sequence (TIGIT, looked up): T1 sequence (TIGIT, looked up) with E39A, A52L
As to the kind of experiment: SPR (BIACORE), N=2.

Another assay concerns the target T7, hTIGIT mutant I68A (human, UniProt Q495A1).
T7 sequence (TIGIT, looked up): T1 sequence (TIGIT, looked up) with I47A, A52L
The experiment in a line: SPR (BIACORE), N=2.

In another assay the target is T8, hTIGIT mutant T117A (human, UniProt Q495A1).
T8 sequence (TIGIT, looked up): T1 sequence (TIGIT, looked up) with A52L, T96A
As to the kind of experiment: SPR (BIACORE), N=2.

A further assay concerns the target T9, hTIGIT mutant Q56A (human, UniProt Q495A1).
T9 sequence (TIGIT, looked up): T1 sequence (TIGIT, looked up) with Q35A, A52L
The experiment in a line: SPR (BIACORE), N=2.

The target in the next assay is T10, hTIGIT mutant H111A (human, UniProt Q495A1).
T10 sequence (TIGIT, looked up): T1 sequence (TIGIT, looked up) with A52L, H90A
The experiment in a line: SPR (BIACORE), N=2.

Assay [2] addresses cynomolgus monkey (cyno) TIGIT protein (cynomolgus monkey, UniProt A0A7N9I9V4 89-209). As to the kind of experiment: SPR, monovalent affinity.
The target of assay [3] is T4, human TIGIT protein. As to the kind of experiment: SPR, monovalent affinity.
The target of a further assay is T11, HA-tagged TIGIT (human, UniProt Q495A1 22-244).
T11 sequence: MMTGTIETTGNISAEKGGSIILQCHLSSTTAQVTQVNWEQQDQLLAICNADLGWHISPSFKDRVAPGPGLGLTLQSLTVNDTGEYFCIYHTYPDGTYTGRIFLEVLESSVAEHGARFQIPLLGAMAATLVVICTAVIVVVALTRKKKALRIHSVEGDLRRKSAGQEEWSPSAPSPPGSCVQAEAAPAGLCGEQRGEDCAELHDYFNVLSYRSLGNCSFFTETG
As to the kind of experiment: TR-FRET, HA-TIGIT with ST-CD226 on CHO cells; competitor CD226. An excerpt: To test for the ability of the clones to block the TIGIT-CD226 interaction, TR-FRET (Time-resolved Fluorescence Resonance Energy Transfer) was used. First, human SNAP-tagged (ST) CD226 with non-permeant donor and acceptor fluorophores was expressed and labeled using CHO cells. The human ST-CD226 was co-expressed with HA-tagged TIGIT, in the presence or the absence of the OMT- and SD-derived anti-TIGIT antibody clones.

Assay [4] deals with T12, full-length human TIGIT on CHO cells (human, UniProt Q495A1 22-244).
T12 construct: also called CHO-hTIGIT; hu TIGIT
T12 sequence: T11 sequence
As to the kind of experiment: FACS, CHO cells expressing TIGIT. (In flow cytometry, cells or beads pass a laser one at a time.)

The target of assay [5] is T12, full-length human TIGIT on CHO cells. The experiment in a line: FACS, PVR-Fc on CHO-TIGIT cells; competitor PVR-Fc. On the procedure: These studies were further validated in CHO-TIGIT PVR blocking experiments in which TIGIT-expressing CHO cells were incubated with labeled PVR-Fc fusion protein in the presence of anti-TIGIT antibody or an human IgG1 control (FIG. 4A).

Sequence of cynomolgus monkey (cyno) TIGIT protein (A0A7N9I9V4 entry or part of it): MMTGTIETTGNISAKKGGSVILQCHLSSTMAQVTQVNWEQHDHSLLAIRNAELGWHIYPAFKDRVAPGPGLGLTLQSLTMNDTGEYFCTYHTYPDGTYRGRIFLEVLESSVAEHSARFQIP

B1: 4.1D3 (antibody, V domains shown)
VH: QVQLQQSGPGLVKPSQTLSLTCAISGDSVSSNSAAWNWIRQSPSRGLEWLGKTYYRFKWYSDYAVSVKGRITINPDTSKNQFSLQLNSVTPEDTAVFYCTRESTTYDLLAGPFDYWGQGTLVTVSS
VL: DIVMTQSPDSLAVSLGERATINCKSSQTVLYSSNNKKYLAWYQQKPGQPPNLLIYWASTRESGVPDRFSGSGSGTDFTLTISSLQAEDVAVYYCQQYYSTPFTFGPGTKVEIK
notes: OMT rat-derived human antibody; also called 4.1D3.Q1
For orientation: Kd means a measure of binding affinity in units of concentration. In the case of B1, the “Binding affinity drop vs. WT” value came to 2.6 fold with hTIGIT mutant L73A, 1.6 fold with hTIGIT mutant Q53A, 5.6 fold in the assay with hTIGIT mutant Y113A and 1 fold in the assay with human TIGIT protein [1]. Also, the Kd in the assay with hTIGIT mutant L65A stood at 8.8 nM; with hTIGIT mutant E60A, 6.1 nM; with hTIGIT mutant I68A, 10.5 nM; with hTIGIT mutant T117A, 0.7 nM; in the assay with hTIGIT mutant Q56A, 2.7 nM; with hTIGIT mutant H111A, 1.9 nM.

B2: 4.1D3.Q1E (antibody, V domains shown)
VH: B1 VH with Q1E
VL: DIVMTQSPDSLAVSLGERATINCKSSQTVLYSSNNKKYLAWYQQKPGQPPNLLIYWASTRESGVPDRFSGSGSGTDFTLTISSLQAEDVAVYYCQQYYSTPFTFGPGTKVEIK
The term IC50 denotes the point on the concentration scale where inhibition reaches its midpoint. Usually EC50 stands for the concentration that produces a half-maximal response. Regarding B2, the dissociation constant (Kd) in [2] amounted to 3.2 nM; with human TIGIT protein [3], 0.56 nM. Further, the values for the half-maximal inhibitory concentration (IC50) (with HA-tagged TIGIT; in [5]) were 45 nM and 0.29 nM, respectively. The EC50 in assay [4] stood at 1.04 nM.

B3: 7.4A3.C96S.Q1E (antibody, V domains shown)
VH: EVQLVQSGSDLKKPGASVRVSCKASGYTFTSYPMNWVRQAPGHGLEWMGWINTNTGNPTYVQGFTGRFVFSLDTSVNTAYLQISSLKAEDTAVYFCARTGGHTYDSYAFDVWGQGTMVTVSS
VL: DIQLTQSPTFLSASVGDRVTITCRASQVISSSLAWYQQNPGKAPKLLIYAASTLQSGVPSRFSGSGSGTEFTLTISSLQPEDFVTYYCQHLHGYPSNFGQGTKVEIK
notes: also called 7.4A3.Q1E.C96S
As to B3, in the assay with human TIGIT protein [1], the “Binding affinity drop vs. WT” value was 1 fold. Further, the dissociation constant (Kd) worked out at 2.01 nM in [2]; 2.97 nM with human TIGIT protein [3]; 3.9 nM in the assay with hTIGIT mutant L65A; 4.8 nM in the assay with hTIGIT mutant E60A; 4.9 nM with hTIGIT mutant I68A; 3.3 nM with hTIGIT mutant T117A. Moreover, the Kd with hTIGIT mutant Q56A came to 23.7 nM; with hTIGIT mutant H111A, 151 nM. For the same molecule, the half-inhibitory concentration (IC50) with HA-tagged TIGIT turned out to be 19.3 nM; in assay [5] it was 0.38 nM. In assay [4], this molecule had a concentration giving a half-maximal response (EC50) of 3.04 nM.

B4: 10A7 (antibody, V domains shown)
VH: EVQLVESGGGLTQPGKSLKLSCEASGFTFSSFTMHWVRQSPGKGLEWVAFIRSGSGIVFYADAVRGRFTISRDNAKNLLFLQMNDLKSEDTAMYYCARRPLGHNTFDSWGQGTLVTVSS
VL: DIVMTQSPSSLAVSPGEKVTMTCKSSQSLYYSGVKENLLAWYQQKPGQSPKLLIYYASIRFTGVPDRFTGSGSGTDYTLTITSVQAEDMGQYFCQQGINNPLTFGDGTKLEIKR
In the case of B4, the “Binding affinity drop vs. WT” value was greater than 11 fold in the assay with hTIGIT mutant L73A, 0.7 fold in the assay with hTIGIT mutant Q53A and 1.2 fold in the assay with hTIGIT mutant Y113A. The Kd with hTIGIT mutant L65A stood at 10.6 nM; with hTIGIT mutant E60A it was 40.3 nM; with hTIGIT mutant I68A, 17.1 nM; in the assay with hTIGIT mutant T117A, 36.4 nM; in the assay with hTIGIT mutant Q56A, 29.5 nM; with hTIGIT mutant H111A, 33.3 nM.

These data come from patent US20220064286A1 (Genentech, published 2022).
